Here are results for eight molecules from paper PMC4156082.

The target in assay [1] is Soluble RhoA (residues 1–181) (UniProt P61586).
Assay [2] shares this target. The source holds these as a separate data set.
Assay [3] has the same target. Put plainly: SPR; Biacore 3000; His6-RhoA loaded with GDPβS (RhoA-GDP) held on a nitrilotriacetic acid chip; untagged onco-Lbc or DHαPH injected (0–5 μM); PBS pH 7.4, 1 mM MgCl2; reference lane His6-ubiquitin; constant of onco-Lbc called apparent (two sites). In general terms: SPR reads the build-up and loss of mass on a sensor chip optically.
Assay [4] shares this target. Put plainly: SPR; Biacore 3000; His6-RhoA loaded with GTPγS (RhoA-GTP) held on a nitrilotriacetic acid chip; untagged onco-Lbc or DHαPH injected (0–5 μM); PBS pH 7.4, 1 mM MgCl2; reference lane His6-ubiquitin; constant of onco-Lbc called apparent (two sites).

Sequence of UniProt P61586 (P61586 1-181): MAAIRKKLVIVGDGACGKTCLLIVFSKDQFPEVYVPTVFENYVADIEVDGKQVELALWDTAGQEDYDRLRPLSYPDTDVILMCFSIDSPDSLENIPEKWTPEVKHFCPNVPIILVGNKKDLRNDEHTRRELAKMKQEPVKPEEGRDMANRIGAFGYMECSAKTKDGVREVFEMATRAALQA

As to onco-Lbc E2001A (domain or fragment), in assay [1], the relative activity (specific exchange activity, DH-PH = 1) (fold of DH-PH) turned out to be 0.27 and the specific exchange activity (Mant-GDP on RhoA replaced by GMP-PNP) stood at 1070 s⁻¹ M⁻¹. The GEF activity: exchange of GDP to Mant-GTP on RhoA, wild-type onco-Lbc = 100 (% of wild-type onco-Lbc) in assay [2] is 8.4.

Consider “AKAP-Lbc construct encompassing residues 2164–2346 (DHαPH) (from UniProt Q12802 2164-2346) (domain or fragment)”, for which the Kd in assay [3] was over 50000 nM; in assay [4], 2930 nM.

As to “onco-Lbc (AKAP13 residues 1922–2346) (domain or fragment)”, the Kd worked out at 2880 nM in assay [3] and 2210 nM in assay [4].

For the molecule onco-Lbc R2136G (domain or fragment), in assay [1], the relative activity (specific exchange activity, DH-PH = 1) (fold of DH-PH) was 0.06 and the specific exchange activity (Mant-GDP on RhoA replaced by GMP-PNP) worked out at 230 s⁻¹ M⁻¹. In assay [2], the GEF activity: exchange of GDP to Mant-GTP on RhoA, wild-type onco-Lbc = 100 (% of wild-type onco-Lbc) came to 7.4.

For the molecule onco-Lbc E2319A (domain or fragment), in assay [1], the relative activity (specific exchange activity, DH-PH = 1) (fold of DH-PH) turned out to be 1.86 and the specific exchange activity (Mant-GDP on RhoA replaced by GMP-PNP) was determined as 7300 s⁻¹ M⁻¹. Besides, in assay [2], the GEF activity: exchange of GDP to Mant-GTP on RhoA, wild-type onco-Lbc = 100 (% of wild-type onco-Lbc) amounted to 148.

With onco-Lbc R2289A (domain or fragment), in assay [1], the relative activity (specific exchange activity, DH-PH = 1) (fold of DH-PH) stood at 0.17 and the specific exchange activity (Mant-GDP on RhoA replaced by GMP-PNP) turned out to be 680 s⁻¹ M⁻¹. The molecule also had a GEF activity: exchange of GDP to Mant-GTP on RhoA, wild-type onco-Lbc = 100 (% of wild-type onco-Lbc) in assay [2] of 10.9.

Consider onco-Lbc F2299A (domain or fragment), for which, in assay [1], the relative activity (specific exchange activity, DH-PH = 1) (fold of DH-PH) came to 0.11 and the specific exchange activity (Mant-GDP on RhoA replaced by GMP-PNP) was 440 s⁻¹ M⁻¹. The GEF activity: exchange of GDP to Mant-GTP on RhoA, wild-type onco-Lbc = 100 (% of wild-type onco-Lbc) in assay [2] came to 23.3.

B1: isolated DH domain of onco-Lbc (AKAP13 residues 1992–2210) (domain or fragment)
chain: VVKRQEVIYELMQTEFHHVRTLKIMSGVYSQGMMADLLFEQQMVEKLFPCLDELISIHSQFFQRILERKKESLVDKSEKNFLIKRIGDVLVNQFSGENAERLKKTYGKFCGQHNQSVNYFKDLYAKDKRFQAFVKKKMSSSVVRRLGIPECILLVTQRITKYPVLFQRILQCTKDNEVEQEDLAQSLSLVKDVIGAVDSKVASYEKKVRLNEIYTKTDS
On to B1, for which, in assay [1], the relative activity (specific exchange activity, DH-PH = 1) (fold of DH-PH) is 3.7 and the specific exchange activity (Mant-GDP on RhoA replaced by GMP-PNP) worked out at 14300 s⁻¹ M⁻¹. In assay [2], the GEF activity: exchange of GDP to Mant-GTP on RhoA, wild-type onco-Lbc = 100 (% of wild-type onco-Lbc) stood at 174.
